In the supplement of paper PMC11811203:

B1: THAP1; numbered along this chain (parent)
chain: MVQSCSAYGCKNRYDKDKPVSFHKFPLTRPSLCKEWEAAVRRKNFKPTKYSSICSEHFTPDCFKRECNNKLLKENAVPTIFLCTEPHDKKEDLLEPQEQLPPPPLPPPVSQVDAAIGLLMPPLQTPVNLSVFCDHNYTVEDTMHQRKRIHQLEQQVEKLRKKLKTAQQRCRRQERQLEKLKEVVHFQKEKDDVSERGYVILPNDYFEIVEVPA

Variants of: B1
Assay: THAP1 transcriptional activity (GFP+/GFP- enrichment relative to wild-type constructs) (ratio to WT); higher = more THAP1 activity (PSMB5 reporter activation)
Details: with PSMB5 promoter-GFP reporter
Outline: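 A site-saturation library of human THAP1 (residues 2–213, each changed to all 20 amino acids) was transduced by lentivirus at MOI ~0.3, in duplicate, into THAP1-knockout HEK-293T cells carrying mClover3 knocked in at endogenous PSMB5. After five days, BFP+ cells were sorted into GFP-dim and GFP-bright bins, and variants were counted by Illumina sequencing of genomic DNA amplicons. Activity is the replicate-mean bright/dim read fold change divided by the mean of wild-type synonymous constructs.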

| Variant | THAP1 transcriptional activity |
| --- | --- |
| L201G | 0.813 |
| L201A | 0.829 |
| E91D | 1.04 |
| T125L | 0.291 |
| T125S | 0.95 |
| K70S | 0.325 |
| K70W | 0.129 |
| K70P | 0.178 |
| K70V | 0.479 |
| L129C | 0.646 |
| L129K | 1.95 |
| L129W | 1.7 |
| P103R | 1.56 |
| H135N | 0.183 |
| Y205G | 1.84 |
| Y205R | 0.621 |
| T48M | 0.138 |
| C54I | 0.0624 |
| C54Y | 0.124 |
| C54T | 0.0761 |
| S4W | 0.171 |
| S4E | 0.103 |
| L32I | 0.906 |
| L32G | 0.156 |

| Variant | THAP1 transcriptional activity |
| --- | --- |
| A114L | 0.635 |
| A114N | 1.35 |
| S194T | 0.865 |
| C67V | 0.777 |
| N128W | 0.283 |
| V2G | 0.0831 |
| V2N | 0.157 |
| L152D | 0.195 |
| V131S | 0.28 |
| V131D | 0.241 |
| V131Q | 0.386 |
| V131M | 0.291 |
| L105M | 1.81 |
| L105A | 1.61 |
| E207T | 0.557 |
| P47S | 0.14 |
| P47H | 0.106 |
| R29G | 0.131 |
| L123W | 0.642 |
| L123E | 1.45 |
| L123C | 0.584 |
| R175Q | 0.653 |
| R175C | 0.503 |
| G117N | 0.857 |

| Variant | THAP1 transcriptional activity |
| --- | --- |
| G117H | 0.396 |
| S55C | 0.0655 |
| S55N | 0.147 |
| S55P | 0.0679 |
| H144C | 0.498 |
| N12C | 0.0986 |
| K147D | 0.605 |
| K147F | 0.361 |
| F81C | 0.223 |
| F81D | 0.125 |
| Q154D | 0.962 |
| Q154W | 0.539 |
| K46H | 0.654 |
| E174C | 1.18 |
| E35T | 0.473 |
| E195M | 0.781 |
| E195T | 0.674 |
| K89I | 1.1 |
| R171K | 0.627 |
| R171M | 0.36 |
| R171S | 0.173 |
| F186W | 1.1 |
| F186K | 1.59 |
| F186H | 1.25 |

| Variant | THAP1 transcriptional activity |
| --- | --- |
| F186T | 1.21 |
| A39Q | 0.502 |
| A39S | 0.512 |
| A39M | 0.752 |
| A39V | 0.252 |
| C5K | 0.167 |
| C5R | 0.132 |
| T79D | 0.228 |
| T79P | 0.18 |
| A76D | 0.209 |
| E74A | 0.445 |
| E74Y | 0.453 |
| E74H | 0.512 |
| S130T | 0.436 |
| S130G | 0.946 |
| V127K | 1.64 |
| V127H | 0.843 |
| F45K | 0.0558 |
| P108I | 1.18 |
| P108L | 1.93 |
| E95K | 1.66 |
| E95Y | 1.04 |
| E95C | 1.23 |
| H23D | 0.117 |

| Variant | THAP1 transcriptional activity |
| --- | --- |
| H23P | 0.161 |
| V40L | 0.867 |
| L118S | 0.509 |
| L118C | 0.498 |
| K90H | 0.995 |
| P19G | 0.547 |
| P19D | 0.681 |
| P107A | 1.2 |
| P107S | 1.14 |
| E98M | 0.62 |
| E98H | 0.824 |
| D61T | 0.368 |
| D61W | 0.145 |
| P121M | 0.288 |
| E210Y | 1.39 |
| E210I | 1.23 |
| E210G | 0.666 |
| A166Y | 0.705 |
| P202T | 0.839 |
| P202D | 0.802 |
| Q155K | 0.749 |
| Q155T | 0.609 |
| K161T | 0.505 |
| K161V | 0.461 |

| Variant | THAP1 transcriptional activity |
| --- | --- |
| S6Q | 0.103 |
| S6H | 0.106 |
| V139H | 0.721 |
| V139E | 0.369 |
| K64D | 0.151 |
| K64I | 0.159 |
| K64R | 1.06 |
| E37I | 0.988 |
| E37K | 0.292 |
| P212R | 0.594 |
| F58R | 0.046 |
| Q111V | 0.457 |
| Q111C | 0.52 |
| Q111T | 1.13 |
| V199L | 0.908 |
| T59M | 0.544 |
| S51K | 0.121 |
| E85L | 0.328 |
| E85Q | 1.16 |
| E85S | 1.35 |
| D204E | 1.22 |
| Q97D | 1.45 |
| Q97M | 1.09 |
| Q97G | 0.874 |

| Variant | THAP1 transcriptional activity |
| --- | --- |
| Q168S | 0.477 |
| Q168D | 0.417 |
| L163R | 0.163 |
| G9K | 0.4 |
| G9Q | 0.115 |
| G9I | 0.144 |
| G197K | 1.33 |
| G197W | 1.8 |
| G197V | 1.8 |
| P26R | 0.098 |
| K18Y | 0.142 |
| K18W | 0.131 |
| K18C | 0.238 |
| I53N | 0.0864 |
| I53K | 0.0685 |
| E56V | 0.83 |
| E56Y | 0.194 |
| V77W | 0.267 |
| E182T | 0.811 |
| V193F | 1.06 |
| L72R | 0.0764 |
| L72W | 0.18 |
| L72I | 0.173 |
| R172N | 0.41 |

| Variant | THAP1 transcriptional activity |
| --- | --- |
| R172W | 0.267 |
| L177S | 0.206 |
| L177D | 0.233 |
| L177F | 0.408 |
| L177N | 0.361 |
| L177I | 0.925 |
| L27T | 0.31 |
| V156I | 0.548 |
| V156Q | 0.225 |
| P101H | 0.968 |
| P101A | 1.1 |
| P101R | 1.3 |
| R41E | 0.197 |
| R41F | 0.233 |
| R41L | 0.233 |
| R41H | 0.827 |
| P122T | 0.614 |
| P122I | 0.39 |
| P122R | 0.328 |
| P122V | 0.214 |
| P122A | 0.914 |
| P122L | 0.692 |
| K164E | 0.343 |
| P60N | 0.844 |

| Variant | THAP1 transcriptional activity |
| --- | --- |
| D88A | 0.554 |
| D88K | 1.56 |
| Y50S | 0.268 |
| Y50D | 0.129 |
| D92I | 2.59 |
| D92A | 1.55 |
| R196Y | 1.11 |
| T84K | 2.57 |
| C10M | 0.103 |
| Q124L | 0.212 |
| Q124S | 0.576 |
| W36V | 0.138 |
| W36C | 0.248 |
| W36G | 0.0718 |
| E178K | 1.59 |
| E178C | 0.927 |
| N136S | 0.345 |
| R65Q | 0.982 |
| R65S | 0.735 |
| K49P | 0.264 |
| K49E | 0.105 |
| P104Y | 0.704 |
| P104V | 2.16 |
| V183C | 1.04 |

| Variant | THAP1 transcriptional activity |
| --- | --- |
| V183R | 0.844 |
| P102A | 1.01 |
| P102D | 2 |
| F22W | 0.125 |
| F22T | 0.126 |
| F22D | 0.0567 |
| L71F | 0.361 |
| A115P | 0.658 |
| E66R | 0.539 |
| Y8L | 0.795 |
| Y8I | 0.484 |
| Y8D | 0.564 |
| E189A | 1.22 |
| E189M | 1.09 |
| F206E | 1.11 |
| F206Y | 1.21 |
| F206R | 0.87 |
| C62P | 0.0987 |
| C62Q | 0.74 |
| Q173S | 0.592 |
| N203G | 1.23 |
| N203D | 0.653 |
| Q145V | 0.59 |
| Q145L | 0.544 |

| Variant | THAP1 transcriptional activity |
| --- | --- |
| N75G | 1.42 |
| R148E | 0.167 |
| R148F | 0.196 |
| R169P | 0.132 |
| R169M | 0.388 |
| V184C | 0.742 |
| V184L | 0.923 |
| Y198N | 1.66 |
| D113T | 0.375 |
| D113P | 0.638 |
| D113S | 0.697 |
| D113F | 0.135 |
| K73T | 0.514 |
| K73P | 0.102 |
| K34P | 0.0748 |
| K179C | 0.34 |
| K179L | 0.546 |
| K179H | 0.616 |
| K179Y | 0.661 |
| S31N | 0.574 |
| S31D | 1.43 |
| S31T | 1.19 |
| M143G | 1.05 |
| M143P | 1.2 |

| Variant | THAP1 transcriptional activity |
| --- | --- |
| I208W | 0.755 |
| H57S | 0.121 |
| F63L | 0.0863 |
| F63E | 0.0925 |
| K181Q | 0.514 |
| V109C | 1.49 |
| V109K | 2.39 |
| Y14S | 0.124 |
| I200Y | 0.548 |
| L180I | 0.806 |
| L180S | 0.482 |
| T165W | 0.39 |
| T165N | 1.38 |
| A7R | 0.122 |
| A7L | 0.156 |
| A7G | 0.118 |
| H150E | 0.884 |
| F132Y | 0.392 |
| Q187C | 0.911 |
| Q187R | 1.03 |
| Q187K | 0.719 |
| D134A | 0.125 |
| L159M | 0.541 |
| L159Y | 0.707 |

| Variant | THAP1 transcriptional activity |
| --- | --- |
| L159W | 0.164 |
| P106E | 2.61 |
| P106H | 0.72 |
| P106V | 1.39 |
| P106I | 1.07 |
| H87F | 2.09 |
| H87T | 2.56 |
| V209P | 0.814 |
| V209W | 0.757 |
| V209H | 0.835 |
| V209N | 0.716 |
| R160L | 0.205 |
| R160K | 0.689 |
| S52N | 0.469 |
| S52Y | 0.46 |
| S52I | 0.379 |
| S52T | 1.41 |
| F25A | 0.123 |
| H185P | 0.76 |
| H185V | 0.579 |
| R42L | 0.104 |
| R42Q | 0.202 |
| I80A | 0.266 |
| Q176G | 0.189 |

| Variant | THAP1 transcriptional activity |
| --- | --- |
| Q176L | 0.707 |
| T138V | 0.728 |
| R146M | 0.595 |
| L119D | 0.609 |
| S110Q | 0.788 |
| S110C | 0.567 |
| S110F | 0.715 |
| D141P | 0.986 |
| K188S | 0.937 |
| K188E | 0.506 |
| T142Y | 0.248 |
| D17C | 0.541 |
| D17M | 1.14 |
| P86Y | 0.685 |
| P86L | 0.608 |
| P86R | 0.766 |
| V211T | 0.876 |
| L100R | 1.46 |
| C33K | 0.22 |
| C33E | 0.0749 |
| C33V | 0.301 |
| K43F | 0.153 |
